± gives the half width of the 95% confidence interval.
Key:
[1] = folding stability dG unfold from trypsin proteolysis; higher = more stable
Method in brief: (§1)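 Mini-proteins designed to be under 80 residues and free of cysteine were carried in a PA-tagged cDNA display construct and digested with trypsin and with chymotrypsin. Each protease was applied at 11 threefold-diluted concentrations, alongside a no-protease condition, before sequencing. K50 came from Bayesian fitting of the sequencing counts, and unfolding free energy was obtained by comparing it with a sequence-predicted unfolded-state K50 and a shared folded-state K50, for each protease separately or for both together. Designs were retained only if their AlphaFold2 dimer inter-PAE exceeded 15.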

[2] = folding stability dG unfold (combined trypsin and chymotrypsin); higher = more stable
Method in brief: as §1

[3] = folding stability dG unfold from chymotrypsin proteolysis; higher = more stable
Method in brief: as §1

Row | Sequence | folding stability dG unfold [1] [kcal/mol] | folding stability dG unfold [2] [kcal/mol] | folding stability dG unfold [3] [kcal/mol]
1 | SAGGMYLVKIKVKIDSPTSEKERDLYILAEPDTDVEEIVKKIPGAKNIEIEVEIIPPSENPEIASNPLSAGG [r19_339_JUSTAS] | 0.645 ± 0.12 | 0.684 ± 0.25 | 0.7 ± 0.15
2 | SAGGSAMREIRVGDTVVRILSIDPSTGEVHIAVREDLPPETIEAARRALEEAGLRFRVEPVPEELLSAGGSA [r15_570_TrMRF] | 1.73 ± 0.065 | 2.15 ± 0.053 | 2.33 ± 0.028
3 | LDPNKPENIALLEKVEEAAKAVIEELEKAGYKVEKLYVALGPNGIKIAPVTIPPEFIEELKKAGILVIPVLS [r1_134_TrMRF] | 1.49 ± 0.11 | 1.56 ± 0.26 | 1.64 ± 0.14
4 | SAGPPKKVEIPVRYPFDGWEIMIQIDPKDPKIEIHVHNPEHRERAREYARTIARIFQENGIPVEIEPWSAGG [r19_354_TrROS] | 1.48 ± 0.057 | 1.73 ± 0.21 | 1.91 ± 0.095
5 | SAGGSAMVKTADGKEVKVEKVIPLEEMSLEELKALAEKNNKPILIVDKKTKKVIVLTKEELEKLLKSAGGSA [r15_904_TrROS_Hall] | 0.858 ± 0.066 | 1.33 ± 0.22 | 1.73 ± 0.071
6 | SIYIMLPVPPGKPYKLSIEIEMPDNGRPYEYDGTFNPENGWVMFPVRFPDNGHPIPPEDFKVKVELEPPKSA [r9_928_TrROS] | 1.42 ± 0.072 | 2.07 ± 0.23 | 2.45 ± 0.14
7 | SAGMELELELEFRLEDGLEVRIRVKVRFDPETGELVIEEVRIEVRPLPPPPPLVLTDEELEALGLEPEESAG [r5_393_TrROS_Hall] | 3.6 ± 0.23 | 3.6 ± 0.16 | 3.32 ± 0.13
8 | SAGGSAGGSAGGPKVFKFKDKIIVIYPNKKPNEEVKVVVKNPKTGKKEEFKIKIPKELLKSAGGSAGGSAGG [r7_834_TrMRF] | 0.512 ± 0.079 | 0.847 ± 0.11 | 1.11 ± 0.13
9 | SFTPEQVKDIAKTIANRMYDNGYEVEVDVEVEPVNNMPYVEIEFEWRDPDGQPWKFEIIIHPDGDIEIYPSA [r9_1027_TrROS] | 1.28 ± 0.16 | 2.43 ± 0.21 | 2.7 ± 0.065
10 | SAGGSAGGVIRMPFVIPDGYVIKDLTVHWSPGNGMFMIEIEIEPVKPPPPPEISPEELNKKNNKSAGGSAGG [r6_148_TrROS] | 2.15 ± 0.21 | 2.41 ± 0.12 | 2.57 ± 0.04
11 | SAGGSAGGSPELKISFPGFEGAEVELDPETNIATVRVKLPDKELELKVRIDDDGITIVEVREVSAGGSAGGS [r20_60_TrMRF] | 1.95 ± 0.07 | 1.94 ± 0.14 | 1.86 ± 0.054
12 | SAGGSAGGMTKDDIIEKLKKEYPDKDVKVLKVEESVLPSGKILAKVTLEFPEEGKTFEKTFEVESAGGSAGG [r6_572_JUSTAS] | 2.91 ± 0.3 | 2.71 ± 0.2 | 2.69 ± 0.13
13 | SAGGKKKTIVLEVKVENLEEILKLAKEAAKAGDKVTVKVKLPDGEVYTVTVDVKTGKIVKVEKKKLPKSAGG [r13_873_TrROS_Hall] | 1.98 ± 0.097 | 2.81 ± 0.2 | 3.3 ± 0.18
14 | MTPDDMKDPNGMPPEDMWMVEIYVPRRDPEDGGPKWKPVGTIFIPPGMDPEELNEIIEELPGLDLIEIYPMS [r1_132_TrROS] | 1.03 ± 0.089 | 1.33 ± 0.14 | 1.42 ± 0.043
15 | SAGGMKVIEVEMTADEVKALVKELAEKDDLKIYIYVDGKKIELTVDEIKKIPPENQKVTIIIEKKKESAGGS [r16_628_TrROS_Hall] | 2.95 ± 0.22 | 3.07 ± 0.28 | 3.11 ± 0.14
16 | SAGGSAMPDDPLVLRANIPFVVVGPDGRPRLFRREILVPFASEEEAERFRRELEALGAEVEPVARASAGGSA [r15_117_TrMRF] | 1.62 ± 0.051 | 1.93 ± 0.12 | 2.17 ± 0.13
17 | SAGMLDVPDDAEITVLVSLEKVPLPGDSSERVLAGVVKLKVKTLPNGEQVIESAEIKIVSAEELKKAGLSAG [r5_340_TrMRF] | 1.34 ± 0.038 | 1.43 ± 0.17 | 1.6 ± 0.099
18 | SAGKDGDPPKRVRIKFKIPLPGGKLYEVTQTFYPNGSVHVSIRFPNGWMLSAWIPPDGDIEIKIMPIKKSAG [r5_168_TrROS] | 3.37 ± 0.21 | 4 ± 0.23 | 4.3 ± 0.14
19 | SAGGSAGGKPKIIEEKELEFTRKDGKKVKIKLVKNEDGKVFAFNKDTGKVITLPLDELKALLKSSAGGSAGG [r6_579_TrROS_Hall] | 1.87 ± 0.052 | 2.27 ± 0.054 | 2.37 ± 0.024
20 | SMVKTIEIEIVLPPGEWVKLTEEDIKEKIEKELPGWKILSIDITKEERLVPGGTEPLVVIKAKILVEKKESA [r9_1189_JUSTAS] | 4.26 ± 0.26 | 3.83 ± 0.21 | 3.19 ± 0.14
21 | GSSMTVEVSESVVPGTGKKILHVTVTFGGSDPEVARAQALAYVEKETGLPVVSVTVTRAPDSWTVNMTVVGS [r1_337_JUSTAS] | 2.86 ± 0.085 | 2.81 ± 0.083 | 2.63 ± 0.032

Row | Sequence | folding stability dG unfold [1] [kcal/mol] | folding stability dG unfold [2] [kcal/mol] | folding stability dG unfold [3] [kcal/mol]
22 | SAGGDEIAKEIANHAREQGYKVEVKVERDEDGMVKIDVEMSMPNGRRVTFSITINPDGIEIQSIEVTPSAGG [r13_203_TrROS] | 2.65 ± 0.12 | 3.97 ± 0.15 | 4.41 ± 0.067
23 | SAGGKLTLELEFELEDGLRVRLRVEVDEDGELRVTLEVEPEPPPPPIRVVKNEDGSEYVYRNGKLYKLSAGG [r13_151_TrROS_Hall] | 3.55 ± 0.16 | 4.16 ± 0.84 | 5.18 ± 0.45
24 | SAGKTIVLPPEMTKEQIEALAKELAEEEGFEKVELVEYDEEKGVFTVKVKVDGKEKTIEIKIVSPEELESAG [r5_912_TrROS_Hall] | 1.62 ± 0.046 | 2.3 ± 0.084 | 2.622 ± 0.022
25 | SAGGSAGGMEVVELTVDELRALLPPGAVLLVYNRKTRKLYEIPVEELEALLKPGDKVRVVVLPPSAGGSAGG [r6_893_TrROS_Hall] | 3.62 ± 0.17 | 4.17 ± 0.25 | 4.39 ± 0.074
26 | SAGGMLRIRIDGREIEIGMTVEEILAAIEKELGREISPELREALRKAKTPEEIVEALRKLGLKIEIESAGGS [r16_601_TrROS_Hall] | 3.66 ± 0.08 | 4.8 ± 0.087 | 5.17 ± 0.086
27 | SAGGSAGGSAGMVLRVRTKDGKVIEIKDLSEELKNMTAEQLAEELKKKFPDLKIEVEEVPSAGGSAGGSAGG [r17_42_TrROS_Hall] | 2.19 ± 0.14 | 2.37 ± 0.15 | 2.26 ± 0.05
28 | SAGGSAGGSDKIKELAKKLKIVKVEKKKDGKYILLVKDEKTGKLYEIEVDLKTNKVTIKELKPSAGGSAGGS [r12_944_TrROS_Hall] | 2.81 ± 0.26 | 3.82 ± 0.39 | 4.31 ± 0.13
29 | MRFEFPLEDGGRVEVEMRPLPDGPVVLDVKITLPNGEEITIPFVFPREEFPDMDMEEIARRVVEEAIRLAKS [r1_92_TrMRF] | 3.463 ± 0.033 | 4.77 ± 0.058 | 5.035 ± 0.038
30 | SAAEPPPVYLVRITVKVPPGVKPLPPGAVVTYDPATGTLTVYVLMTADEIDALAAAPGVEITDIEVIKLDSA [r9_827_TrROS_Hall] | 3.16 ± 0.22 | 4.59 ± 0.24 | 4.94 ± 0.28
31 | SAGGSAGGSVKPGQEIEVRVELTYDEETGELTIRREVVNKETGELIAEEEITISLEDLPPELLSAGGSAGGS [r12_145_TrROS_Hall] | 1.83 ± 0.083 | 1.63 ± 0.076 | 1.51 ± 0.04
32 | SAGGSAGGSMYKVEIEIETSPEGGITIKVTIIPPDGSVIEGNLTPEEVAKRFGFPPPEILELLSAGGSAGGS [r20_235_JUSTAS] | 2.21 ± 0.049 | 2.48 ± 0.14 | 3.03 ± 0.062
33 | SAGGSAGGSAGMTITKTEDGTYRLTLTVTETLPNGSTVTRTVTLTVPLEDAEEILAALPPSAGGSAGGSAGG [r11_505_TrROS_Hall] | 2.52 ± 0.11 | 2.72 ± 0.089 | 2.87 ± 0.032
34 | SAGGSAGGSAPELVKKIAEELPVPVKVEPFGNVLLVELELPNEDGEPVKLRLAIPIPPELLGSAGGSAGGSA [r18_27_TrMRF] | -0.195 ± 0.11 | 0.463 ± 0.19 | 0.909 ± 0.12
35 | SAGGSAMEIDIDPEKNEIRIYNPWNGQPHPFTIESIEPIDPDNKYFKFKIKYPDTGKEMPFMVQIDSAGGSA [r15_209_TrROS] | 0.57 ± 0.042 | 1.08 ± 0.12 | 1.4 ± 0.15
36 | SQWVIKIKFPNPDGEPVKIIFPVEEIQEIFKEEHGEPSSPQEFADRLAKHHPNVDVEIMPLDDMPPEQLNSA [r9_1085_TrROS] | -0.998 ± 0.66 | -0.0736 ± 0.34 | 0.42 ± 0.21
37 | SAGGSAGGMFIALVTITLPNGEKITDLAFFESPEKIYVLNLKDGKWSEPKVEDIKVVPLEELLFSAGGSAGG [r6_558_TrMRF] | 1.92 ± 0.12 | 2.41 ± 0.18 | 2.73 ± 0.069
38 | SAGMITVPLPDGSVLELTVEKETVTTEVDPSTGKKRLVTETLMTNTGDLAVNGKVSPTTATLTTVVLESAGG [r19_246_JUSTAS] | -0.36 ± 0.067 | 0.155 ± 0.069 | 0.373 ± 0.045
39 | SAGGSEVVLEAEGVDPATGKPYTVRVVYDKETGVPVVEVRDADGTLLAVIPVPPDKALEALKELGVSAGGSA [r2_115_TrMRF] | 2.92 ± 0.08 | 2.99 ± 0.067 | 3.046 ± 0.013
40 | SAGGSAGGSMKVVKVELTLTGPGGEVTYLEEEIEVPEDELGEIEVSLPDENLSYEVTVEVIEESAGGSAGGS [r12_354_JUSTAS] | 0.444 ± 0.12 | 1.12 ± 0.18 | 1.41 ± 0.071
41 | SAGQTITFELKDPDITPEELQKKLQKRFGMKPMNIKPVEPDPDGWRFVIEFPENGGTRTFPWEEIRELISAG [r5_550_TrROS] | 0.861 ± 0.11 | 1.03 ± 0.13 | 1.12 ± 0.18
42 | SAGGSAGGSEKPPVKTITLVLKVDDAEEAAKALAEELGVEITRIEVTRDENGKVYVRITIRLPSAGGSAGGS [r12_359_TrROS_Hall] | 3.6 ± 0.1 | 3.9 ± 0.14 | 3.99 ± 0.099
